Assay results taken from PMC12630831 (Nature Communications, 2025).
Changes are numbered by the printed parent chain. Names may count otherwise.

Target: the molecule itself
Assay: SDS-PAGE under DTT-free conditions with western blot

B1: FLAG-tagged PRDX1 C83A expressed in HEK293 cells (natural protein, UniProt Q06830 1-199, looked up)
chain: MSSGNAKIGHPAPNFKATAVMPDGQFKDISLSDYKGKYVVFFFYPLDFTFVCPTEIIAFSDRAEEFKKLNCQVIGASVDSHFAHLAWVNTPKKQGGLGPMNIPLVSDPKRTIAQDYGVLKADEGISFRGLFIIDDKGILRQITVNDLPVGRSVDETLRLVQAFQFTDKHGEVCPAGWKPGSDTIKPDVQKSKEYFSKQK
**Q.** How did the “stoichiometry N” value turn out when B1 was run?
**A.** The value was 2.

B2: FLAG-tagged WT PRDX1 expressed in HEK293 cells (natural protein, UniProt Q06830 1-199, looked up)
chain: B1 chain with A83C
**Q.** Which “stoichiometry N” value does the source give for B2 here?
**A.** The value was 2.
